Laboratory results published in article PMC6638984, “Increased association between Epstein-Barr virus EBNA2 from type 2 strains and the transcriptional repressor BS69 restricts EBNA2 activity” (PLoS Pathogens, 2019).

Biological target: T1, BS69CC-MYND (BS69 amino acid 480–602, CC-MYND domain) (Homo sapiens, UniProt Q15326)
T1 construct: The BS69 CC-MYND domain (amino acids 480–602) was amplified from pCI-BS69; GST (N, cleaved yes); 6xHis (N, cleaved yes); made in house; host or cells: E. coli Rosetta 2 (DE3) pLysS
T1 sequence (Q15326 480-602): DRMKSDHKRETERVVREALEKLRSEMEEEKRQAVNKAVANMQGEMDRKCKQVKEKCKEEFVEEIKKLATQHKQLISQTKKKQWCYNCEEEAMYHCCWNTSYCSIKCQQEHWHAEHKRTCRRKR
Experiment: Isothermal titration calorimetry (ITC) of EBNA2 peptides and polypeptides binding to BS69CC-MYND
Settings: 25°C, mean ± SD of 3 independent experiments; for n value (stoichiometry of BS69CC-MYND/EBNA2 binding, monomeric proteins), one-site model: pH 7.5, polypeptides 19 x 2.0 μl injections into 0.1 mM BS69CC-MYND
Excerpt: We hypothesised that the impaired gene activation and growth maintenance properties of type 2 EBNA2 may be the result of increased binding to BS69 as a result of the aspartate to serine amino acid difference adjacent to BS69 binding motif 2. […] We used isothermal titration calorimetry (ITC) to determine the affinity of peptide binding to the C-terminal region of BS69 (amino acid 480–602) comprising the CC-MYND domain that we expressed and purified from E.coli (Fig 1B and 1C). […] The difference in binding between type 1 and type 2 EBNA2 motif 2 peptides could be influenced by both the aspartate to serine change and differences in two other amino acids present in the sequence (Fig 1B and 1C).
The BS69 CC-MYND domain (amino acids 480–602) was amplified from pCI-BS69 containing the full length human BS69 sequence (gift from Dr Stéphane Ansieau) and cloned using SLIC into the SmaI and HindIII sites of pET49b+ to generate a construct expressing an N-terminal GST-6x Histidine tag BS69CC-MYND fusion protein (S2 Table).
Four commercially synthesized peptides (Peptide Synthetics) were used for ITC. These included BS69 binding motif 2 of type 1 EBNA2 (435–445) or type 2 EBNA2 (402–412) and putative BS69 binding motif 3 of type 1 EBNA2 (445–455) or type 2 EBNA2 (412–422).
Frozen protein was quickly thawed using running water and dialysed overnight at 4°C using Slide-A-Lyzer MINI Dialysis Units (Thermo Scientific) against ITC buffer (20mM Tris-HCl, 100mM NaCl and 1mM TCEP, pH 7.5). The next day, protein samples were centrifuged at 13000 rpm for 10 mins at 4 °C and the concentration was determined by NanoDrop spectroscopy (NanoDrop Technologies) with their respective molecular weights and extinction coefficients. EBNA2 peptides (1mM) and polypeptides (type 1, 0.3 mM and type 2, 0.6 mM) were titrated against BS69CC-MYND (0.1mM) at 25°C using a MicroCalTM iTC200 instrument (Malvern). For peptides, 13 x 3.0 μl injections were used for titration. For EBNA2 polypeptides 19 x 2.0 μl or 29 x 1.3 μl injections were used for titration. ITC data were corrected for non-specific heat and analysed using MicroCal Origin 7.0. The experiments were performed in triplicate alongside a control experiment with no BS69CC-MYND (buffer only in the cell). All polypeptides were used within 24 hrs of dialysis into ITC buffer.

[1] = pH 7.5, peptides 13 injections, polypeptides 19 injections

Substance	KD (dissociation constant), one-site (one event) binding model (20mM Tris-HCl, 100mM NaCl, 1mM TCEP, pH 7.5, EBNA2 titrated into 0.1 mM BS69CC-MYND, peptides 1 mM, 13 injections, n fixed to 1, polypeptides 19 x 2.0 μl injections)	Kd (20mM Tris-HCl, 100mM NaCl, 1mM TCEP, pH 7.5, EBNA2 titrated into 0.1 mM BS69CC-MYND, peptides 1 mM, 13 injections, n fixed to 1, polypeptides 19 x 2.0 μl injections, read-out: KD (dissociation constant), one-site (one event) binding model)	-TΔS, one-site model [1]	ΔG, one-site model [1]	ΔH, one-site model [1]	n value (stoichiometry of BS69CC-MYND/EBNA2 binding, monomeric proteins), one-site model	n value (stoichiometry of BS69CC-MYND/EBNA2 binding, monomeric proteins), one-site model (listed as type 1 EBNA2_381-445)
YPPSIDPADLD [T1 EBNA2 motif 3]	not able to detect any binding	–	–	–	–	–	–
T1 EBNA2_381-445: type 1 EBNA2 polypeptide, amino acids 381–445, expressed and purified from E.coli	–	950 nM	18.4 ± 0.46 kcal/mol	-8.22 ± 0.08 kcal/mol	-26.6 ± 0.53 kcal/mol	0.42 ± 0.02	0.42
